Laboratory results reported in US20210395381A1 (OSSIANIX, published 2021).

Key:
recombinant mouse TfR-1 = molecular target: T1, recombinant mouse TfR-1 (mouse, UniProt Q62351 89-763); assay: phage ELISA
T1 construct: Recombinant protein coated at 1 ug/ml in the phage ELISA; also called mTfR1; mouse transferrin receptor-1

recombinant human TfR-1 = molecular target: T2, recombinant human TfR-1 (human, UniProt P02786 89-760); assay: phage ELISA
T2 construct: Recombinant protein coated at 1 ug/ml in the phage ELISA; also called hTfR1; human transferrin receptor-1
T2 sequence (P02786 89-760 limits assumed): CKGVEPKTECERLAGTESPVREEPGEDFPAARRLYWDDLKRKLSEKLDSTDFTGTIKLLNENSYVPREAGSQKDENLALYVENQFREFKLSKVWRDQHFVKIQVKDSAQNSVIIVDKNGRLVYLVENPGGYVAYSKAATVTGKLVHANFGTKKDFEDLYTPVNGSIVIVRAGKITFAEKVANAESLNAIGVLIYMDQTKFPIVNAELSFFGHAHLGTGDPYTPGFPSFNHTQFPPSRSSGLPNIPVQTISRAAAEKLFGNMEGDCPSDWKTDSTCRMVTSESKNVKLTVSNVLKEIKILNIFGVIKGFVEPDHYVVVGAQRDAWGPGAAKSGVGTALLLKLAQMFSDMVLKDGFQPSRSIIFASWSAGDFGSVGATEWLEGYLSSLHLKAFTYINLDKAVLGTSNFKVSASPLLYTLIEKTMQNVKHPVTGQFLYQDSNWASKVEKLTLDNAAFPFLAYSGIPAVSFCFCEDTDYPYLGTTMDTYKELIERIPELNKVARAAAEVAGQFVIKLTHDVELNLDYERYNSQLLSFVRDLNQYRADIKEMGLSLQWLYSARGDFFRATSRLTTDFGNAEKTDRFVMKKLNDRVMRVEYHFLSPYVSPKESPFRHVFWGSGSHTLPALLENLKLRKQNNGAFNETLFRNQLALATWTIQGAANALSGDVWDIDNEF

T1 sequence (Q62351 89-763 limits assumed): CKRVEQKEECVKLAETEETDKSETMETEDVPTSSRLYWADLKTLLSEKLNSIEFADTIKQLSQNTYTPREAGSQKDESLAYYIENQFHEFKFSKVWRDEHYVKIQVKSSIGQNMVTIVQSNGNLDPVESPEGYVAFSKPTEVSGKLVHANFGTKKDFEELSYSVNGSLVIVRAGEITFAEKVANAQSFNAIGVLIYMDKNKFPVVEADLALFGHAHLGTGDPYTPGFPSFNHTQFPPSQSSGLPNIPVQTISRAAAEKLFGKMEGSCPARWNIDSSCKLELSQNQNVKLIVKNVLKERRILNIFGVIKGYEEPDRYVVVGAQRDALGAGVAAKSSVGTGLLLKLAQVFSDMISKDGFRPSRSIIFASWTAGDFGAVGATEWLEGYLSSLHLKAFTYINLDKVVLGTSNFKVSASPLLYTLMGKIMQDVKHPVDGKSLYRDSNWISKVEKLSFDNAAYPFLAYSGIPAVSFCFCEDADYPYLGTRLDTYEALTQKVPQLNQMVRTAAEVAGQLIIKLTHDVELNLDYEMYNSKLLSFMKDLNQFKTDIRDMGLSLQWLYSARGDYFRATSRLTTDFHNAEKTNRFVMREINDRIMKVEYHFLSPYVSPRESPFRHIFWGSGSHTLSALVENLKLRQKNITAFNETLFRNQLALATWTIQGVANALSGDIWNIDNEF

Row | Binder | A450 (recombinant mouse TfR-1) [A450] | A450 (recombinant human TfR-1) [A450]
1 | Clone 8.1 (VNAR, VNAR on phage; Clone 8 framework) VNAR: ARVDQTPQTITKETGESLTINCVLRDSNCALPSTYWYRKKSGSTNEESISKGGRYVETVNSGSKSFSLRINDLTVEDSGTYRCKVLRLLSSILRGCNYRKHDVYGDGTAVTVNA | 0.312 | 0.371
2 | Clone 8.2 (VNAR, VNAR on phage; Clone 8 framework) VNAR: ARVDQTPQTITKETGESLTINCVLRDSNCALPSTYWYRKKSGSTNEESISKGGRYVETVNSGSKSFSLRINDLTVEDSGTYRCKVLFNLSSILRGCNYRKHDVYGDGTAVTVNA | 0.242 | 0.315
3 | Clone 8.3 (VNAR, VNAR on phage; Clone 8 framework) VNAR: ARVDQTPQTITKETGESLTINCVLRDSNCALPSTYWYRKKSGSTNEESISKGGRYVETVNSGSKSFSLRINDLTVEDSGTYRCKVVRFLSSILRGCNYRKHDVYGDGTAVTVNA | 0.194 | 0.27
4 | Clone 8.4 (VNAR, VNAR on phage; Clone 8 framework) VNAR: ARVDQTPQTITKETGESLTINCVLRDSNCALPSTYWYRKKSGSTNEESISKGGRYVETVNSGSKSFSLRINDLTVEDSGTYRCKVKLWLSSILRGCNYRKHDVYGDGTAVTVNA | 0.188 | 0.173
5 | Clone 8.5 (VNAR, VNAR on phage; Clone 8 framework) VNAR: ARVDQTPQTITKETGESLTINCVLRDSNCALPSTYWYRKKSGSTNEESISKGGRYVETVNSGSKSFSLRINDLTVEDSGTYRCKVIAQLGWWLRGCNYRKHDVYGDGTAVTVNA | 0.172 | 0.152
6 | Clone 8.6 (VNAR, VNAR on phage; Clone 8 framework) VNAR: ARVDQTPQTITKETGESLTINCVLRDSNCALPSTYWYRKKSGSTNEESISKGGRYVETVNSGSKSFSLRINDLTVEDSGTYRCKVIAQWWSILRGCNYRKHDVYGDGTAVTVNA | 0.164 | 0.199
7 | Clone 8.7 (VNAR, VNAR on phage; Clone 8 framework) VNAR: ARVDQTPQTITKETGESLTINCVLRDSNCALPSTYWYRKKSGSTNEESISKGGRYVETVNSGSKSFSLRINDLTVEDSGTYRCKVIAQLSSILKACKYRKHDVYGDGTAVTVNA | 0.123 | 0.087
8 | Clone 8.8 (VNAR, VNAR on phage; Clone 8 framework) VNAR: ARVDQTPQTITKETGESLTINCVLRDSNCALPSTYWYRKKSGSTNEESISKGGRYVETVNSGSKSFSLRINDLTVEDSGTYRCKVFAPLSSILRGCNYRKHDVYGDGTAVTVNA | 0.118 | 0.103
9 | Clone 8.9 (VNAR, VNAR on phage; Clone 8 framework) VNAR: ARVDQTPQTITKETGESLTINCVLRDSNCALPSTYWYRKKSGSTNEESISKGGRYVETVNSGSKSFSLRINDLTVEDSGTYRCKVWNMLSSILRGCNYRKHDVYGDGTAVTVNA | 0.108 | 0.119
10 | Clone 8.10 (VNAR, VNAR on phage; Clone 8 framework) VNAR: ARVDQTPQTITKETGESLTINCVLRDSNCALPSTYWYRKKSGSTNEESISKGGRYVETVNSGSKSFSLRINDLTVEDSGTYRCKVIAQLAIELRGCNYRKHDVYGDGTAVTVNA | 0.101 | 0.072
11 | Clone 8.11 (VNAR, VNAR on phage; Clone 8 framework) VNAR: ARVDQTPQTITKETGESLTINCVLRDSNCALPSTYWYRKKSGSTNEESISKGGRYVETVNSGSKSFSLRINDLTVEDSGTYRCKVIAQLSSIYPGCNYRKHDVYGDGTAVTVNA | 0.101 | 0.066
12 | Clone 8.12 (VNAR, VNAR on phage; Clone 8 framework) VNAR: ARVDQTPQTITKETGESLTINCVLRDSNCALPSTYWYRKKSGSTNEESISKGGRYVETVNSGSKSFSLRINDLTVEDSGTYRCKVRWRLSSILRGCNYRKHDVYGDGTAVTVNA | 0.1 | 0.108
13 | Clone 8.13 (VNAR, VNAR on phage; Clone 8 framework) VNAR: ARVDQTPQTITKETGESLTINCVLRDSNCALPSTYWYRKKSGSTNEESISKGGRYVETVNSGSKSFSLRINDLTVEDSGTYRCKVIAQLALALRGCNYRKHDVYGDGTAVTVNA | 0.096 | 0.075
14 | Clone 8.14 (VNAR, VNAR on phage; Clone 8 framework) VNAR: ARVDQTPQTITKETGESLTINCVLRDSNCALPSTYWYRKKSGSTNEESISKGGRYVETVNSGSKSFSLRINDLTVEDSGTYRCKVIAQLSSILGYCYYRKHDVYGDGTAVTVNA | 0.095 | 0.067
15 | Clone 8.15 (VNAR, VNAR on phage; Clone 8 framework) VNAR: ARVDQTPQTITKETGESLTINCVLRDSNCALPSTYWYRKKSGSTNEESISKGGRYVETVNSGSKSFSLRINDLTVEDSGTYRCKVMWNLSSILRGCNYRKHDVYGDGTAVTVNA | 0.095 | 0.095
16 | Clone 8.16 (VNAR, VNAR on phage; Clone 8 framework) VNAR: ARVDQTPQTITKETGESLTINCVLRDSNCALPSTYWYRKKSGSTNEESISKGGRYVETVNSGSKSFSLRINDLTVEDSGTYRCKVIAKLFSILCGCNYRKHDVYGDGTAVTVNA | 0.092 | 0.138

Row | Binder | A450 (recombinant mouse TfR-1) [A450] | A450 (recombinant human TfR-1) [A450]
17 | Clone 8.17 (VNAR, VNAR on phage; Clone 8 framework) VNAR: ARVDQTPQTITKETGESLTINCVLRDSNCALPSTYWYRKKSGSTNEESISKGGRYVETVNSGSKSFSLRINDLTVEDSGTYRCKVIAYRKSIVRGCNYRKHDVYGDGTAVTVNA | – | 0.091
18 | Clone 8.18 (VNAR, VNAR on phage; Clone 8 framework) VNAR: ARVDQTPQTITKETGESLTINCVLRDSNCALPSTYWYRKKSGSTNEESISKGGRYVETVNSGSKSFSLRINDLTVEDSGTYRCKVIAQLSSKYVGCNYRKHDVYGDGTAVTVNA | 0.09 | 0.06
19 | Clone 8.19 (VNAR, VNAR on phage; Clone 8 framework) VNAR: ARVDQTPQTITKETGESLTINCVLRDSNCALPSTYWYRKKSGSTNEESISKGGRYVETVNSGSKSFSLRINDLTVEDSGTYRCKVQSQLSIVLRGCNYRKHDVYGDGTAVTVNA | 0.088 | 0.078
20 | Clone 8.20 (VNAR, VNAR on phage; Clone 8 framework) VNAR: ARVDQTPQTITKETGESLTINCVLRDSNCALPSTYWYRKKSGSTNEESISKGGRYVETVNSGSKSFSLRINDLTVEDSGTYRCKVIAQLSSILRGCLDKKHDVYGDGTAVTVNA | 0.087 | 0.084
21 | Clone 8.21 (VNAR, VNAR on phage; Clone 8 framework) VNAR: ARVDQTPQTITKETGESLTINCVLRDSNCALPSTYWYRKKSGSTNEESISKGGRYVETVNSGSKSFSLRINDLTVEDSGTYRCKVIAHLSSFRDGCNYRKHDVYGDGTAVTVNA | 0.086 | 0.058
22 | Clone 8.22 (VNAR, VNAR on phage; Clone 8 framework) VNAR: ARVDQTPQTITKETGESLTINCVLRDSNCALPSTYWYRKKSGSTNEESISKGGRYVETVNSGSKSFSLRINDLTVEDSGTYRCKVIAQQKSILRGCNYHKHDVYGDGTAVTVNA | 0.086 | 0.066
23 | Clone 8.23 (VNAR, VNAR on phage; Clone 8 framework) VNAR: ARVDQTPQTITKETGESLTINCVLRDSNCALPSTYWYRKKSGSTNEESISKGGRYVETVNSGSKSFSLRINDLTVEDSGTYRCKVIAQLPKQLRGCNYRKHDVYGDGTAVTVNA | 0.085 | 0.055
24 | Clone 8.24 (VNAR, VNAR on phage; Clone 8 framework) VNAR: ARVDQTPQTITKETGESLTINCVLRDSNCALPSTYWYRKKSGSTNEESISKGGRYVETVNSGSKSFSLRINDLTVEDSGTYRCKVIAQLSSILRGCNYFFPDVYGDGTAVTVNA | 0.084 | 0.093
25 | Clone 8.25 (VNAR, VNAR on phage; Clone 8 framework) VNAR: ARVDQTPQTITKETGESLTINCVLRDSNCALPSTYWYRKKSGSTNEESISKGGRYVETVNSGSKSFSLRINDLTVEDSGTYRCKVIAQLSSMELGCNYRKHDVYGDGTAVTVNA | 0.084 | 0.06
26 | Clone 8.26 (VNAR, VNAR on phage; Clone 8 framework) VNAR: ARVDQTPQTITKETGESLTINCVLRDSNCALPSTYWYRKKSGSTNEESISKGGRYVETVNSGSKSFSLRINDLTVEDSGTYRCKVIASAFSILRGCNYRKHDVYGDGTAVTVNA | 0.082 | 0.087
27 | Clone 8.27 (VNAR, VNAR on phage; Clone 8 framework) VNAR: ARVDQTPQTITKETGESLTINCVLRDSNCALPSTYWYRKKSGSTNEESISKGGRYVETVNSGSKSFSLRINDLTVEDSGTYRCKVQGMLSSILRGCNYRKHDVYGDGTAVTVNA | 0.08 | 0.079
28 | Clone 8.28 (VNAR, VNAR on phage; Clone 8 framework) VNAR: ARVDQTPQTITKETGESLTINCVLRDSNCALPSTYWYRKKSGSTNEESISKGGRYVETVNSGSKSFSLRINDLTVEDSGTYRCKVAFILSSILRGCNYRKHDVYGDGTAVTVNA | 0.077 | 0.085
29 | Clone 8.29 (VNAR, VNAR on phage; Clone 8 framework) VNAR: ARVDQTPQTITKETGESLTINCVLRDSNCALPSTYWYRKKSGSTNEESISKGGRYVETVNSGSKSFSLRINDLTVEDSGTYRCKVIAQLSSILLTCEYRKHDVYGDGTAVTVNA | 0.077 | 0.059
30 | Clone 8.30 (VNAR, VNAR on phage; Clone 8 framework) VNAR: ARVDQTPQTITKETGESLTINCVLRDSNCALPSTYWYRKKSGSTNEESISKGGRYVETVNSGSKSFSLRINDLTVEDSGTYRCKVSMLLSSILRGCNYRKHDVYGDGTAVTVNA | 0.077 | 0.114
31 | Clone 8.97 (VNAR, VNAR on phage; Clone 8 framework) VNAR: ARVDQTPQTITKETGESLTINCVLRDSNCALPSTYWYRKKSGSTNEESISKGGRYVETVNSGSKSFSLRINDLTVEDSGTYRCKVIAQLSSILRGCNYNIDDVYGDGTAVTVNA | – | 0.057
32 | Clone 8.137 (VNAR, VNAR on phage; Clone 8 framework) VNAR: ARVDQTPQTITKETGESLTINCVLRDSNCALPSTYWYRKKSGSTNEESISKGGRYVETVNSGSKSFSLRINDLTVEDSGTYRCKVIAQLSSILRGCNYFGKDVYGDGTAVTVNA | – | 0.076
